Reference: paper PMC12374985

Biological target: endogenous PKM2 (human (endogenous in A549, PC9 and HEK293T)) (UniProt P14618)
Assay: cross-linking

Sequence of endogenous PKM2, P14618 1-531 (natural protein; other documents disagree on this pair) (P14618 whole entry): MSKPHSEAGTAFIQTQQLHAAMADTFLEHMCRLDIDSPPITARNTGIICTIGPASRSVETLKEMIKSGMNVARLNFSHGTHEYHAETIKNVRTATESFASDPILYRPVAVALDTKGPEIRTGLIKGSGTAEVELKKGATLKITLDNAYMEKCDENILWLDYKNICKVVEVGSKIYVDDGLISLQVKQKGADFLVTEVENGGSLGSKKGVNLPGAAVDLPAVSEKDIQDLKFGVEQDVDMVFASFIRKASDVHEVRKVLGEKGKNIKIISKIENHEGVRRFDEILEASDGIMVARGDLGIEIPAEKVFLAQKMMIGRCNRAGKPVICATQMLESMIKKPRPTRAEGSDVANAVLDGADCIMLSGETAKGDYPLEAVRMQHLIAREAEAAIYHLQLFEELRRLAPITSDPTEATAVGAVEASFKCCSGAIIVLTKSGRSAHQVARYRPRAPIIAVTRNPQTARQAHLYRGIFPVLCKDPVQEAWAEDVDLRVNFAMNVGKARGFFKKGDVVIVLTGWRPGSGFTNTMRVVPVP

## endogenous PKM2, P14618 1-531 (natural protein; other documents disagree on this pair)
  stoichiometry N: 2
